From article PMC5286519, “Two strategies to engineer flexible loops for improved enzyme thermostability” (Scientific Reports, 2017)

B1: Escherichia coli transketolase (TK); wild-type E. coli TK (Escherichia coli K-12) (protein)
chain: MSSRKELANAIRALSMDAVQKAKSGHPGAPMGMADIAEVLWRDFLKHNPQNPSWADRDRFVLSNGHGSMLIYSLLHLTGYDLPMEELKNFRQLHSKTPGHPEVGYTAGVETTTGPLGQGIANAVGMAIAEKTLAAQFNRPGHDIVDHYTYAFMGDGCMMEGISHEVCSLAGTLKLGKLIAFYDDNGISIDGHVEGWFTDDTAMRFEAYGWHVIRDIDGHDAASIKRAVEEARAVTDKPSLLMCKTIIGFGSPNKAGTHDSHGAPLGDAEIALTREQLGWKYAPFEIPSEIYAQWDAKEAGQAKESAWNEKFAAYAKAYPQEAAEFTRRMKGEMPSDFDAKAKEFIAKLQANPAKIASRKASQNAIEAFGPLLPEFLGGSADLAPSNLTLWSGSKAINEDAAGNYIHYGVREFGMTAIANGISLHGGFLPYTSTFLMFVEYARNAVRMAALMKQRQVMVYTHDSIGLGEDGPTHQPVEQVASLRVTPNMSTWRPCDQVESAVAWKYGVERQDGPTALILSRQNLAQQERTEEQLANIARGGYVLKDCAGQPELIFIATGSEVELAVAAYEKLTAEGVKARVVSMPSTDAFDKQDAAYRESVLPKAVTARVAVEAGIADYWYKYVGLNGAIVGMTTFGESAPAELLFEEFGFTVDNVVAKAKELL
notes: full-length tktA product, N-terminal His6-tag (kept, no cleavage told), expressed in E. coli XL10-Gold from plasmid pQR791, Ni-NTA purified, dialysed into ThDP and MgCl2 (holo form), homodimer
B2: Escherichia coli transketolase (TK); wild-type E. coli TK (Escherichia coli K-12; H192P) (protein)
chain: MSSRKELANAIRALSMDAVQKAKSGHPGAPMGMADIAEVLWRDFLKHNPQNPSWADRDRFVLSNGHGSMLIYSLLHLTGYDLPMEELKNFRQLHSKTPGHPEVGYTAGVETTTGPLGQGIANAVGMAIAEKTLAAQFNRPGHDIVDHYTYAFMGDGCMMEGISHEVCSLAGTLKLGKLIAFYDDNGISIDGPVEGWFTDDTAMRFEAYGWHVIRDIDGHDAASIKRAVEEARAVTDKPSLLMCKTIIGFGSPNKAGTHDSHGAPLGDAEIALTREQLGWKYAPFEIPSEIYAQWDAKEAGQAKESAWNEKFAAYAKAYPQEAAEFTRRMKGEMPSDFDAKAKEFIAKLQANPAKIASRKASQNAIEAFGPLLPEFLGGSADLAPSNLTLWSGSKAINEDAAGNYIHYGVREFGMTAIANGISLHGGFLPYTSTFLMFVEYARNAVRMAALMKQRQVMVYTHDSIGLGEDGPTHQPVEQVASLRVTPNMSTWRPCDQVESAVAWKYGVERQDGPTALILSRQNLAQQERTEEQLANIARGGYVLKDCAGQPELIFIATGSEVELAVAAYEKLTAEGVKARVVSMPSTDAFDKQDAAYRESVLPKAVTARVAVEAGIADYWYKYVGLNGAIVGMTTFGESAPAELLFEEFGFTVDNVVAKAKELL
notes: as for B1
B3: Escherichia coli transketolase (TK); wild-type E. coli TK (Escherichia coli K-12; A282P) (protein)
chain: MSSRKELANAIRALSMDAVQKAKSGHPGAPMGMADIAEVLWRDFLKHNPQNPSWADRDRFVLSNGHGSMLIYSLLHLTGYDLPMEELKNFRQLHSKTPGHPEVGYTAGVETTTGPLGQGIANAVGMAIAEKTLAAQFNRPGHDIVDHYTYAFMGDGCMMEGISHEVCSLAGTLKLGKLIAFYDDNGISIDGHVEGWFTDDTAMRFEAYGWHVIRDIDGHDAASIKRAVEEARAVTDKPSLLMCKTIIGFGSPNKAGTHDSHGAPLGDAEIALTREQLGWKYPPFEIPSEIYAQWDAKEAGQAKESAWNEKFAAYAKAYPQEAAEFTRRMKGEMPSDFDAKAKEFIAKLQANPAKIASRKASQNAIEAFGPLLPEFLGGSADLAPSNLTLWSGSKAINEDAAGNYIHYGVREFGMTAIANGISLHGGFLPYTSTFLMFVEYARNAVRMAALMKQRQVMVYTHDSIGLGEDGPTHQPVEQVASLRVTPNMSTWRPCDQVESAVAWKYGVERQDGPTALILSRQNLAQQERTEEQLANIARGGYVLKDCAGQPELIFIATGSEVELAVAAYEKLTAEGVKARVVSMPSTDAFDKQDAAYRESVLPKAVTARVAVEAGIADYWYKYVGLNGAIVGMTTFGESAPAELLFEEFGFTVDNVVAKAKELL
notes: as for B1
B4: Escherichia coli transketolase (TK); wild-type E. coli TK (Escherichia coli K-12; I189H) (protein)
chain: MSSRKELANAIRALSMDAVQKAKSGHPGAPMGMADIAEVLWRDFLKHNPQNPSWADRDRFVLSNGHGSMLIYSLLHLTGYDLPMEELKNFRQLHSKTPGHPEVGYTAGVETTTGPLGQGIANAVGMAIAEKTLAAQFNRPGHDIVDHYTYAFMGDGCMMEGISHEVCSLAGTLKLGKLIAFYDDNGISHDGHVEGWFTDDTAMRFEAYGWHVIRDIDGHDAASIKRAVEEARAVTDKPSLLMCKTIIGFGSPNKAGTHDSHGAPLGDAEIALTREQLGWKYAPFEIPSEIYAQWDAKEAGQAKESAWNEKFAAYAKAYPQEAAEFTRRMKGEMPSDFDAKAKEFIAKLQANPAKIASRKASQNAIEAFGPLLPEFLGGSADLAPSNLTLWSGSKAINEDAAGNYIHYGVREFGMTAIANGISLHGGFLPYTSTFLMFVEYARNAVRMAALMKQRQVMVYTHDSIGLGEDGPTHQPVEQVASLRVTPNMSTWRPCDQVESAVAWKYGVERQDGPTALILSRQNLAQQERTEEQLANIARGGYVLKDCAGQPELIFIATGSEVELAVAAYEKLTAEGVKARVVSMPSTDAFDKQDAAYRESVLPKAVTARVAVEAGIADYWYKYVGLNGAIVGMTTFGESAPAELLFEEFGFTVDNVVAKAKELL
notes: as for B1
B5: Escherichia coli transketolase (TK); wild-type E. coli TK (Escherichia coli K-12; A282P/H192P) (protein)
chain: MSSRKELANAIRALSMDAVQKAKSGHPGAPMGMADIAEVLWRDFLKHNPQNPSWADRDRFVLSNGHGSMLIYSLLHLTGYDLPMEELKNFRQLHSKTPGHPEVGYTAGVETTTGPLGQGIANAVGMAIAEKTLAAQFNRPGHDIVDHYTYAFMGDGCMMEGISHEVCSLAGTLKLGKLIAFYDDNGISIDGPVEGWFTDDTAMRFEAYGWHVIRDIDGHDAASIKRAVEEARAVTDKPSLLMCKTIIGFGSPNKAGTHDSHGAPLGDAEIALTREQLGWKYPPFEIPSEIYAQWDAKEAGQAKESAWNEKFAAYAKAYPQEAAEFTRRMKGEMPSDFDAKAKEFIAKLQANPAKIASRKASQNAIEAFGPLLPEFLGGSADLAPSNLTLWSGSKAINEDAAGNYIHYGVREFGMTAIANGISLHGGFLPYTSTFLMFVEYARNAVRMAALMKQRQVMVYTHDSIGLGEDGPTHQPVEQVASLRVTPNMSTWRPCDQVESAVAWKYGVERQDGPTALILSRQNLAQQERTEEQLANIARGGYVLKDCAGQPELIFIATGSEVELAVAAYEKLTAEGVKARVVSMPSTDAFDKQDAAYRESVLPKAVTARVAVEAGIADYWYKYVGLNGAIVGMTTFGESAPAELLFEEFGFTVDNVVAKAKELL
notes: as for B1
B6: Escherichia coli transketolase (TK); wild-type E. coli TK (Escherichia coli K-12; D143K) (protein)
chain: MSSRKELANAIRALSMDAVQKAKSGHPGAPMGMADIAEVLWRDFLKHNPQNPSWADRDRFVLSNGHGSMLIYSLLHLTGYDLPMEELKNFRQLHSKTPGHPEVGYTAGVETTTGPLGQGIANAVGMAIAEKTLAAQFNRPGHKIVDHYTYAFMGDGCMMEGISHEVCSLAGTLKLGKLIAFYDDNGISIDGHVEGWFTDDTAMRFEAYGWHVIRDIDGHDAASIKRAVEEARAVTDKPSLLMCKTIIGFGSPNKAGTHDSHGAPLGDAEIALTREQLGWKYAPFEIPSEIYAQWDAKEAGQAKESAWNEKFAAYAKAYPQEAAEFTRRMKGEMPSDFDAKAKEFIAKLQANPAKIASRKASQNAIEAFGPLLPEFLGGSADLAPSNLTLWSGSKAINEDAAGNYIHYGVREFGMTAIANGISLHGGFLPYTSTFLMFVEYARNAVRMAALMKQRQVMVYTHDSIGLGEDGPTHQPVEQVASLRVTPNMSTWRPCDQVESAVAWKYGVERQDGPTALILSRQNLAQQERTEEQLANIARGGYVLKDCAGQPELIFIATGSEVELAVAAYEKLTAEGVKARVVSMPSTDAFDKQDAAYRESVLPKAVTARVAVEAGIADYWYKYVGLNGAIVGMTTFGESAPAELLFEEFGFTVDNVVAKAKELL
notes: as for B1

Substrate: O=CCO
Experiment: HPLC of erythrulose formed, Michaelis-Menten fit
Type: biochemical, Escherichia coli
Conditions: 50 mM Li-HPA (saturating co-substrate), 4-80 mM GA, 2.4 mM ThDP, 9 mM MgCl2, 50 mM Tris-HCl pH 7.0, 22 °C
Text: HPLC of erythrulose formed, Michaelis-Menten fit on Escherichia coli transketolase (TK); wild-type E. coli TK

Row | Protein | Km | kcat | kcat/Km
1 | B1 | 20.5 (1.3) mM | 62.3 s⁻¹ | 3040 M⁻¹ s⁻¹
2 | B2 | 18.0 (1.2) mM | 65.5 s⁻¹ | 3640 M⁻¹ s⁻¹
3 | B3 | 17.6 (2.1) mM | 45.5 s⁻¹ | 2580 M⁻¹ s⁻¹
4 | B4 | 18.0 (0.8) mM |  | 
5 | B5 | 23.3 (1.4) mM | 81.2 s⁻¹ | 3480 M⁻¹ s⁻¹
6 | B6 | 16.1 (1.2) mM | 48.1 s⁻¹ | 2990 M⁻¹ s⁻¹
